{"source": "patent US20220305128", "tested_on": "NF-kB (endogenous, A549 cells) (Homo sapiens)", "assay": "cell_activity", "conditions": "A549 MTT, 1 pmol RNA transfected; 89% day 1; indirect readout"}
{"sequence": "AAAAAAAAAAGAUCUUGAAACUGUUUUAAGGUUGGCCGAUCUUAAAAAA [NF-kB aptamer, circular RNA]", "values": [{"measurement": "activity (% viability day 2)", "result": 86}]}
